Test results published in patent US9649378B2, “Cancer methods” (priority 2010, dated 2017).
“Also recorded” adds a separate entry of the source.

What was measured:
[1] = system: SKOV-3 and A2780 ovarian cancer cells; assay: Annexin V FACS and caspase-glo apoptosis assays with r-OPCML; format: cell-based
Procedure: (§1) (B) a 96 h in vitro SKOV-3 growth assay with 2 μM rOPCML administered to growth media. Time points were collected every 24 h and normalised to control cells treated with vehicle only. (C) Normal ovarian surface epithelial cells (OSE-C2) and a panel of ovarian (SKOV-3, IGROV, OVISE, OVCAR-5, A2780, PEA1 and PEA2), HER2-positive (MDA-231) and negative (BT-474) breast cancer cells and non-adherant (H69, H501 small-cell) and adherent (A549 carcinoma, HCC95 non-SSLC squamous) lung cancer cells were subjected to an in vitro growth assay with 10 μM of rOPCML. Time points were collected at 24 and 48 h and cell growth was normalised to vehicle only controls. Cell viability was quantified in all experiments using an MU-based assay and measured at 570 nm. Caspase cleavage-based apoptosis assays using (D) A2780 and (E) SKOV-3 were undertaken with administration of rOPCML (2, 5 and 10 μM) over 24 h. Caspase cleavage was quantified using the GaspaseGlo kit and normalised to cell viability.
Purified recombinant human OPCML domain 1-3 protein (r-OPCML) (FIG. 8) was produced from the bacterial expression vector (pHis-Trx) subcloned with domains 1-3 of OPCML, excluding the signal peptide and GPI anchor sequences (FIG. 8A).

SKOV-3 cells = assay: in vitro growth assay (MTT-based) with rOPCML added to growth media; settings: 0.5-10 μM for 48 h or 2 μM for 96 h
Procedure: (§2) (A) SKOV-3 cells were subjected to a 48 h in vitro growth assay with varying concentrations of OPCML administration. (B) A 96 h in vitro SKOV-3 growth assay with 2 μM rOPCML administered to growth media. Time points were collected every 24 h and normalised to control cells treated with vehicle only. Cell viability was quantified using MTT and measured at 570 nm. (C) Upper panel—OSE-C2 and SKOV-3 cells were subjected to a 48 h in vitro growth assay with varying OPCML concentrations (0.5, 1, 2, 5 and 10 μM); lower panel—normal ovarian surface epithelial cells (OSE-C2) and a panel of ovarian (SKOV-3, IGROV, OVISE, OVCAR-5, A2780, PEA1 and PEA2) and […] breast cancer cells were subjected to an in vitro growth assay with 10 μm OPCML. Time points were collected at 24 h and 48 h and cell growth was monitored to vehicle only controls. Cell viability was quantified in all experiments using an MTT-based assay and measured at 570 nm.
(B) a 96 h in vitro SKOV-3 growth assay with 2 μM rOPCML administered to growth media. Time points were collected every 24 h and normalised to control cells treated with vehicle only. […] Cell viability was quantified in all experiments using an MU-based assay and measured at 570 nm. […] Caspase cleavage was quantified using the GaspaseGlo kit and normalised to cell viability. […]

[2] = system: normal ovarian surface epithelial cells (OSE-C2); assay: in vitro growth assay (MTT-based) with rOPCML; format: cell-based; settings: OSE-C2, OPCML expressing
Procedure: as §2
as §1, with “viability. […]” for “viability.”

[3] = system: receptor tyrosine kinase signaling in SKOV-3 and A2780 cells; assay: Western blot / IFM of RTKs and downstream signalling after exogenous OPCML; format: cell-based; settings: for RTK levels and RTK signalling: 2 μM for 48 h, Western blot
Procedure: FIG. 9: Cellular uptake of recombinant OPCML. SKOV-3 cells were incubated with vehicle alone or vehicle including 2 μM OPCML for 24 h. Cells were then washed 3× with PBS and fixed with 4% PFA. Cells were then prepared for IFM using rabbit α-HER2 mAb and mouse α-OPCML mAb. Goat α-rabbit alexa-488 and α-mouse alexa-555 secondary antibodies were used. Slides were imaged using a Leica SP5 confocal microscope.
(§3) (A) Western Blot analysis of pHER, tHER2, tEGFR, pEGFR, tFGFR, pFGFR proteins from SKOV-3 cells untreated, treated with vehicle only or OPCML (2 μM) for 48 h. (B) Western blot analysis of pAKT, tAKT, pERK, tERK proteins from SKOV-3 cells untreated, treated with vehicle only or OPCML (2 μM) for 48 h. Protein loading was standardised by BCA-assay and β-tubulin was used as a loading control.
as §3, with “SKOV-3 and A2780” for “SKOV-3”, “cells” for “cells untreated,”, “tERK,” for “tERK”

[4] = system: HER2-positive (MDA-231) and negative (BT-474) breast cancer cells; assay: in vitro growth assay (MTT-based) with rOPCML, breast lines; format: cell-based; settings: for breast cancer cell lines growth-inhibited / killed, of lines tested: both HER2 positive and HER2 negative
Procedure: (§4) We have tested 0.5, 1, 2, 5 and 10 μM of recombinant […] human OPCML in vitro, and there is a linear dose response which has not yet peaked. […] The physician skilled in the art will be able to identify suitable doses based upon this information and their skill in the art.
as §2
as §1, with “Caspase cleavage-based apoptosis assays using (D) A2780 and (E) SKOV-3 were undertaken with administration of rOPCML (2, 5 and 10 μM) over 24 h.” left out

[5] = system: ovarian cancer cell lines (SKOV-3, IGROV, OVISE, OVCAR-5, A2780, PEA1 and PEA2); assay: in vitro growth assay (MTT-based) with rOPCML, ovarian panel; format: cell-based; settings: for growth of ovarian and breast cancer cell lines: 10 μM, 24 h and 48 h, versus vehicle only; for ovarian cancer cell lines growth-inhibited / killed, of lines tested: in vitro
Procedure: as §4, §2, §1

[6] = system: SKOV-3 cancer cells injected intraperitoneally; assay: intraperitoneal tumour growth assay, r-OPCML versus BSA; format: in vivo, nude mouse; settings: for IP tumour growth / tumour weight: 1 ml (10 μM) IP twice weekly, 3 weeks
Procedure: (§5) Comparison of r-OPCML and control protein (bovine serum albumen) treated A2780 and SKOV-3 cell lines. (A) Gross anatomical observation of the animals (B) Intraperitoneal tumour growth assay. Tumours were removed, weighed and photographed after 3 weeks of twice-weekly 1 mL intraperitoneal injection of 10 μM r-OPCML or BSA. Representative A2780 and SKOV-3 tumour xenografts from 4 animals are presented. A scale bar is shown. (C) mean tumour weight, (D) number of deposits and (E) volume of ascites removed per mouse from the intraperitoneal assay presented in B. Comparison is shown between tumours and ascites collected from BSA- (−) and r-OPCML-treated (+) mice. (F) Western blot analysis of recovered tumours from control (BSA) and r-OPCML treated animals recapitulates in-vitro findings.
(§6) In view of these in-vitro findings, we proceeded to determine whether r-OPCML protein had potential and relevance as an in-vivo tumour suppressor therapy. Mice with either SKOV-3 or A2780 cancer cells injected intraperitoneally (IP), after tumour establishment, received twice-weekly IP injections of either 1 ml (10 μM) bovine serum albumin (BSA) or 1 ml (10 μM) r-OPCML.

[7] = system: A2780 cancer cells injected intraperitoneally; assay: as above; format: in vivo, nude mouse; settings: A2780 model; for IP tumour growth / tumour weight: 1 ml (10 μM) IP twice weekly, 3 weeks; for IP tumour growth / tumour weight / ascites formation / volume / number of IP peritoneal deposits / peritoneal dissemination: versus BSA
Procedure: as §5, §6

[8] = system: lung cancer cells (H69, H501, A549, HCC95); assay: in vitro growth assay (MTT-based) with rOPCML, lung lines; format: cell-based; settings: 10 μM rOPCML
Procedure: as §1

[9] = listed as recombinant full length human OPCML
[10] = 0.5, 1, 2, 5 and 10 μM tested in vitro, ovarian and breast cancer cell lines
[11] = SKOV-3 model, versus BSA, listed as rOPCML

B1: r-OPCML: Purified recombinant human OPCML domain 1-3 protein from E. coli, excluding signal peptide and GPI anchor sequences; SEQ ID No 5 (protein, listed as Homo sapiens)
chain: PKAMDNVTVRQGESATLRCTIDDRVTRVAWLNRSTILYAGNDKWSIDPRVIILVNTPTQYSIMIQNVDVYDEGPYTCSVQTDNHPKTSRVHLIVQVPPQIMNISSDITVNEGSSVTLLCLAIGRPEPTVTWRHLSVKEGQGFVSEDEYLEISDIKRDQSGEYECSALNDVAAPDVRKVKITVNYPPYISKAKNTGVSVGQKGILSCEASAVPMAEFQWFKEETRLATGLDGMRIENKGRMSTLTFFNVSEKDYGNYTCVATNKLGNTNASIT
- apoptosis in caspase-glo assay ([1]; 2, 5 and 10 μM over 24 h): induces apoptosis in both these cell lines in a dose dependent fashion
- early apoptosis, time post exposure ([1]; Annexin V FACS apoptosis assay, depending on cell line): 2 to 6 h
- SKOV-3 cell growth in vitro (SKOV-3 cells): specific, dose-dependent inhibition of cell growth
- SKOV-3 cell growth in vitro (SKOV-3 cells; listed as exogenous OPCML): inhibits SKOV-3 cell growth
- effect on normal ovarian surface epithelial cells [2]: without affecting normal ovarian surface epithelial cells
- effect on normal ovarian surface epithelial cells ([2]; listed as OPCML): sparing normal ovarian surface epithelial cells
- effect on normal ovarian surface epithelial cells ([2]; listed as rOPCML): no effect
- RTK levels and RTK signalling [3]: potently downregulated
- RTK levels and RTK signalling ([3]; listed as Exogenous OPCML): inhibits RTK signaling
- RTK levels and RTK signalling ([3]; listed as exogenous OPCML): inhibits receptor tyrosine kinase signaling
- RTK levels and RTK signalling ([3]; listed as rOPCML): abrogates total RTK levels and inhibits RTK signalling
- ERK protein levels ([3]; SKOV-3, 2 μM OPCML 48 h): downregulates
- HER2 protein level ([3]; SKOV-3, 2 μM OPCML, listed as exogenous OPCML): downregulation of HER2; also recorded: downregulates
- pERK and pAKT ([3]; SKOV-3 and A2780, immunoblotting): abrogating pERK and pAKT
- AKT S473 phosphorylation ([3]; administration to cancer cells in vitro): inhibits phospho S473 AKT; also recorded: inhibits AKT s473 phosphorylation
- growth of HER2+ and HER2− breast cancer cell line ([4]; 10 μM, 24 h and 48 h): profoundly inhibited
- breast cancer cell lines growth-inhibited / killed, of lines tested [4]: 2 of 2
- breast cancer cell lines growth-inhibited / killed, of lines tested [4, 9]: 2/2
- growth of ovarian and breast cancer cell lines ([5]; listed as Exogenous OPCML): inhibits growth
- growth of ovarian and breast cancer cell lines ([5]; listed as OPCML): inhibits growth
- growth of ovarian and breast cancer cell lines ([5]; listed as rOPCML): specifically inhibits
- concentration from which inhibition of cell growth is seen [5, 10]: ≥ 2 μm
- concentration giving frank cell death [5, 10]: 5 to 10 µM
- response of PEA2 cell line ([5]; PEA2): resistance
- ovarian cancer cell lines growth-inhibited / killed, of lines tested [5]: 6 of 7
- ovarian cancer cell lines growth-inhibited / killed, of lines tested ([5]; listed as rOPCML): 6/7
- ovarian cancer cell lines growth-inhibited / killed, of lines tested [5, 9]: 6/7
- RTKs in recovered IP tumour (Western blotting) ([6]; SKOV3 IP tumour, r-OPCML versus BSA treated): same spectrum of RTKs inhibited
- peritoneal dissemination ([6]; SKOV3 model, versus BSA): profound inhibition
- IP tumour growth / tumour weight ([6]; SKOV-3 model, versus BSA): significantly and profoundly suppressed
- IP tumour growth / tumour weight ([6]; SKOV-3 model, versus BSA, listed as Recombinant OPCML): reduces tumour growth
- IP tumour growth / tumour weight [6, 11]: profound inhibition
- condition of animals at 3 weeks ([6]; SKOV-3 model, BSA controls deteriorating): remained well
- ascites formation / volume ([6]; SKOV-3 model, versus BSA): significantly and profoundly suppressed
- ascites formation / volume [6, 11]: profound inhibition
- IP tumour growth / tumour weight [7]: significantly and profoundly suppressed
- IP tumour growth / tumour weight ([7]; listed as Recombinant OPCML): reduces tumour growth
- IP tumour growth / tumour weight ([7]; listed as rOPCML): profound inhibition
- condition of animals at 3 weeks ([7]; BSA controls deteriorating): remained well
- ascites formation / volume [7]: significantly and profoundly suppressed
- number of IP peritoneal deposits / peritoneal dissemination [7]: profoundly inhibited
- ascites formation / volume ([7]; listed as rOPCML): profound inhibition
- number of IP peritoneal deposits / peritoneal dissemination ([7]; listed as rOPCML): profound inhibition
- lung cancer cell lines with profoundly inhibited cell growth, of lines tested [8]: 5 of 5
